Measured values: the DeepSol protein solubility set

Experiment: soluble on expression in E. coli; label from the status in PepcDB or PDB records

Sequence	soluble on expression in E. coli
MSLTEIRLVDVTMRDGNQSLWGATGLNTAHMLQAAALTEACGFRAIDFTSSSHMAVAVRYFQNNPWERLRRMAAAMPTTPLQFITTGLRFIAWQQADPEFMRLVYRALQANGVGRFVLLDPMHEVPAVIEAAKLVKEEGNAEVMAALTFTLSEIHTDQFYADFARAVGQSPNIDLFYIKDPAGLLSVDRARTLVPAVKAVIGNRPLEIHAHTTVGQGMMASLEAAKLGISAIHVGVGPGGDGSSLPEANRMVANLEEAGFSVGVDKAALKRLTTYWERVALAEGLPPGTPQNFDASFLRHQIAGGVMTTIARQLDELGLSDRMGAVIEETGQVRADLGFPIMVTPFPQMVMTQALFNVIGERRYAQVSDQVIRYCMGKFGKPTSPVDREVLATIMDRPRSRELEDEPMFPALGDLRRQFGSHLPDEEFLLRAVMPGEQVDAMLAAGPSRATYSPQAAPILSLLRQLAARPDARDIVIEREGFRLALHAGASLEGHHHHHH	not soluble
MSLTENKELRDILGGYHDNIKSKIMENKLDEAIYLVDSLSATFKLPSSGYDRSSCTPYNNEVSEKYGIEEYVNASLIPTPRTLFIAAQNPKDEKRDVFTDLLMKSNTKLVVSLIDDPRYFEEEWLQDRKVIKYMNKDLFIDEIYNIRGRNIRRLRYINWVDFSVITREEMEVFHSYFDSVRTEVVLVHCIAGVGRTGTFIMYDILKRMENITLDTFIDVFLNLRSKRAHLVTNKIQLEFLKNIFLESEGHHHHHH	soluble
MSLTERVLVTGGGGFVACHLIQQLLASGNVVNTTVRNLTNRAKVLPLLTLQKQHPGKLYLFEADLLVDGAFDAPMHDCTVVHHVASPFLLPEKIKDGRREMLEPALLGTRNVLSSVDKTPSVLRVVMTSTVGAIFGDYIDVLHMKNKTLTEDYFNTSSTLETNPYHYAKVEAEKEAWRICEKQTRWSLVTINPGMILGPSLTPASDSGSLFLLDEMFRGYFFYGMPDLSLTTVDVRDVAAAHIIAANKVDAQGRYILAEQHMISFVEIAGIVRRLHRRPWLLPRYRIPDAIVRLIGPFFGLTQDYLSKHLGIRFVVDNQRSLNDLGIKYRSITETLTDHYRCWDMQRQLNEGHHHHHH	soluble
MSLTESARIDGVSLYEIVIPMKIPFQISSGTCYTRRSLVVEIREGDLFGYGESAPFEEPFYLGETLETTKVILKNHLLPMILGKEPLSIEEFNHLIKNGIRGNHFARCGVENAYWDLIAKKNKISLKAMIEKKMKNLGVKQEYLASNNYIESGAALGIPEDGRIETLIHQVEESLQEGYRRIKIKIKPGWDVEPLQETRRAVGDHFPLWTDANSSFELDQWETFKAMDAAKCLFHEQPLHYEALLDLKELGERIETPICLDESLISSRVAEFVAKLGISNIWNIKIQRVGGLLEAIKIYKIATDNGIKLWGGTMPESGLGARFLISLASFRGFVFPADVAASEKWYGKGNDLVENTMTDGKIYVPDEPGASFDMTLSHLEALGKKIWESQRGEGHHHHHH	soluble
MSLTFSILARDPNNGRFGVAVATCHLAVGSTVPHIRSGVGAVATQAHTNPYLGICGLERLEHHADAQDVLNSLLLDDPQRDWRQFHLIDLDGRTACWTGVECGGWAGHRHHPNLSVAGNCLAGEVVLEAMEQTFLTSDPNWKLGRRLMTALQAGEQAGGDQRASSCTSAALQVSGEAAFPLLDLRVDFRSGAVEELMELYERSQDRWAQQWRDELLELPMLNRLVAEGHHHHHH	soluble
MSLTHAILFDLDGTLVDHASAARAALHAWSPTVGVDTDVERWIELDKWGFARFERGETTHLGQRRDRIRAYLNRELDDATCDDIYSGYLKAYEQNWTAYPDAKGVLDRAVATGAPVGILTNGAAPMQQDKLDRTGLGLPELVMLAASTLDSAKPRPEMYARALTHLGARTATIIGDDWTNDVAAPRELGWNALYLDRSGTDPRADIHSLDELFHEGHHHHHH	soluble
MSLTHCKNQHCGGELGDYTGYIESPNYPGDYPANAECVWHIAPPPKRRILIVVPEIFLPIEDECGDVLVMRKSASPTSITTYETCQTYERPIAFTSRSRKLWIQFKSNEGNSGKGFQVPYVTYDEDYQQLIEDIVRDGRLYASENHQEILKDKKLIKALFDVLAHPQNYFKYTAQESKEMFPRSFIKLLRSKVSRFLRPYKEGHHHHHH	not soluble
MSLTIYLMRHGQTYFNLWHKIQGWTDSPLTEEVIKQAKEIGRYFRENNINFDKGYSSTSERASDTLELATDHQLPYRRLKGLKEEYFGSFEAEDERLNPPVPYEDFFVKYGGESEDQVKMRMHDTMLKIARENADNSNILIVSHAGAIFNFLSTINMSIDQLFKIGFTNASVAKIEFKNDQFKVVEIINKKNNKFEVTQVNEGHHHHHH	soluble
MSLTKAYTIVIKLGSSSLVDESTKEPKLSIMTLIVETVTNLKRMGHKVIIVSSGGIAVGLDALNIPHKPKQLSEVQAIAAVGQGRLIARWNMLFSQYGEQTAQILLTRNDILRWNQYNNARNTINELLAMGVIPIVNENDTLSISEIEFGDNDTLSAITAALVGADFLFLLTDVDCLYTDNPRTNPDARPIVLVPELSEGLPGVNTSSGSGSEVGTGGMRTKLIAADLASNAGIETIVMKSDRPEYVPKIVDYIQHHFRPPRHIGNGTQQQFLDLQDTELEQLRRYDVPMHTKFLANDNKHKLKNREFWILHGLITKGAIIIDENSYDKLLSKDMASLTPNAVIEVRDNFHELECVDLKIGQRLPNGELDISKPIQSVGCVRSNYTSLELAKIKGLPSEKIHDVLGYSVSEYVAHRENIAFPPQFEGHHHHHH	not soluble
MSLTLDELDSHLFKCADIIRDAVDPTDYKEYILPLVFYKAISDEYEQEREEIVEEYGEDFADNANLYDVPIVPEGHRWNDLRQESENVDEAINNAFTEFTQANPDLSGIFNANFMEAGGLTDDRLIKLVEHLSTYDLDRDSVPPDMLGEAYMDLVRHFAEEEGKSGGQFFTPPHIVQLCVRLVDDFADGMTFHDPTVGSGGMLTEAAKYYREAQGGDPSKLTFTGQEINPDIAAIARMNLSLHTLNGEIERGDSLASPGFTDGDDLERFDRVLANFPFSADWAKDDLQDDQYGRFDWHTKLPRADRGDYAFIMHIAEQLKEPDCGDESGGKAAIVIPHGVLFRKHEQRYRQPMLENDLVEAIVGLPENLFQNNSIPSAILVLNTDKPADREGEVQFIHAADEAFYEELSNQNELTDDGLDHIVENFDDWTTEERVSRTVGIEEIEENDFNLNIALYVDTTEPEEDIDVNEELAELRELQAEREEIESRMTEHMEALQYE	soluble
MSLTLLKGRRKVDTIKVGILGYGLSGSVFHGPLLDVLDEYQISKIMTSRTEEVKRDFPDAEVVHELEEITNDPAIELVIVTTPSGLHYEHTMACIQAGKHVVMEKPMTATAEEGETLKRAADEKGVLLSVYHNRRWDNDFLTIKKLISEGSLEDINTYQVSYNRYRPEVQARWREKEGTATGTLYDLGSHIIDQTLHLFGMPKAVTANVMAQRENAETVDYFHLTLDYGKLQAILYGGSIVPANGPRYQIHGKDSSFIKYGIDGQEDALRAGRKPEDDSWGADVPEFYGKLTTIRGSDKKTETIPSVNGSYLTYYRKIAESIREGAALPVTAEEGINVIRIIEAAMESSKEKRTIMLEHEGHHHHHH	soluble
MSLTMREVAKAAGVSIKTVSNVVNDYEFVSQATRDKVNKAIAELGYTVNVSARNLRRGQTGIIGLAIPDLQMPYFAQLSSLVIEEAKKVGLRVIVEPTQYSRDGELEALHGSQQMMIDGLIYSPLELGQDDVEQLKVDYPLVLVGERIFTDQVDHIATENVEGAKRATQYLLTTGCRRVAVVGVHPGEKVGSAALRYQGYLEALEEAGVEFDDRLVVESGMWHRSDGVRAMNALLDSGVEVDGVVALNDMLASGVMHAIQMHGLHIPDDISVVGFDNSDDSQYLSPALTSIAPGLEAVARLSVKVLKERIDGRDPNADRPGEKVFRKVASSLVVRQSTKLPIDSLVLEGHHHHHH	not soluble
MSLTNLPEDRTGEEIRDAIKIDGEAVRGHLDELVRSTVEETLNQMLDAEADQICKAKRYERSPDRVDSRAGSYSRKLQTKAGEVSLKVPQLRSLPLETQIIERYKRRESSVEEALVEMYLAGVSVRRVEDITEALWGTRVSSSTVSELNQKIYERIDVWRNRPLEGEHPYVMLDGIWLKRSWGGEVKNIAVLVAVGVRSDGHREILSVAEGTKEDSESWRTFLRHLKERGLQGVRLITSDKCLGLVEALGEFFPEAAWQRCIVHFYRNVLKDVPRSKSRDVAAMLKAVHAQEDRTAATEKAEQVAEKLASLRLGNAAKCFRAGVQETLAYMNFPREHWTRLRSNNMLERIMKEIRRRTRVVGAFPDGQSALMLVAARLRHIAGTHWGTRRYLDMDRLHEPEEREDHEGHHHHHH	soluble
MSLTNQAYPMALVSQDSLDSYIRSVNGYPMLSADEERELAERLHYKGDIDAAKGLILSHLRFVVHVARGYSGYGLPMADLVQEGNIGLMKAVKRFNPEMGVRLVSFAVHWIKAEIHEYVLRNWRIVKIATTKAQRKLFFNLRKSKKRLGWFNNGEVETVARELGVEPAEVREMESRLAAQDAAFEMSAEDDENGMAYTAPVLYLEDKHSDLADNLEAENWEAHTTQRLSMALASLDERSQHIVRARWLDDDNKTTLQDLAEMYGVSAERIRQLEKNAMRKLKEAVGEEGHHHHHH	soluble
MSLTPSIISIQSQVVHGHVGNSAAVLPMQGHGVTVAAVPTTLLSNHPGFETVRGRVLESELVGDLLRGVEERGLIETSGYIVSGYLGSRANGEVVASFVKRARRLNPDITYICDPVMGDAALGVFVADQVVSCLCDDLIPLADLLTPNQFEVGLIAGRPLSTWRELEAAVLKIRAPRGARLVVTGCALSDTPDGALENIVFDDKTHTRLTSPRLPLAPAGTGDLYTGLLTAKLARGHTLVEAACHAATSVLDVLQQTMAAGEHEMQLARAITTLGPACKETSEGHHHHHH	soluble
MSLTPTELNLKAKALLETHFDDIVLSGEISKITLHGSGHWYFDLKDERSSIACAMFKGANLKVGFKPAVGDFLELCGSVSLYPESGRYQFIATSMKKAGFGDLEAQFLALKERLQKEGLFDPRFKKSLPKFPKKVGIITSKTSAALQDMLKLIHQKEYFLAKIYIFDALTQGNNAPFSLIQALKKADDMDLDVLIIARGGGSREDLFCFNDENLAREIFKAKTPIISAIGHEIDYVISDFVADFRAPTPSAAIDTLFYSKLDIEQSLDLMEEKLMQLWNYKIQNYENLLLNLSKFFKFNSLPKIIDEKIKQSHNIEKQLNHLLANQMRYNELKLDKLQNAYLQHENFFNKSKKFICIRKNGKIANLEDLKSDDIVILSSQTSQKEAKILEGHHHHHH	not soluble
MSLTQKPLTVVVGPPSAGKSTWVKAAAKASDLVIDLDILAPTVIGKPMWIADSRERSLVIRERNSLVAEYMRGKTAHPHCFLIDTAGSFKRRKFWLDRGADVVLLDTDKDICRARIRQCSARPESTRAGRLAAVDRWEEGHHHHHH	soluble
MSLTTELKTEALPTRTQVDPKHCWDTTLMYANREEWKKDFDLCSSGKDRSPIWPEFSPSHYQIDNPESLLELLSKKFSVERKLDQLYIYAHLIHDQDITNPEGESDYQSIVYLYTLFSQEISWIQPALIALSEEKVAALLSSSVLAPYRFYLEKIFRLSPHTGTANEEKILASSFAALNVSNKAFSSLSDAEIPFGIAKDSNGEEHPLSHALASLYMQSPDQELRRTAYLAQFQRYYDYRNTFANLLNGKVQAHLFEAKARNYPSCLEASLFQHNIPTTVYINLINETKKHTSLINRYFNLKKEALNLKEFHFYDVYAPISQTTSKNYSYEEGVDLVCKSLLPLGTHYVEILRNGLLSNRWVDRYENKHKRSGAYSSGCYDSAPYILLNYTNTLYDVSVIAHEAGHSMHSYFSREAQPYHDAQYPLFLAEIASTFNEMLLMEALSKSDQSKEDKIVIITKTLDTIFATLFRQTFFAAFEYEIHSAAEQGTPLTEEFLSATYGNLQKEFYGGVVTSDSLSALEWARIPHFYYNFYVYQYATGIIAALSFAEKILTQEPGALELYLKFLKSGRSDFPLNILKKSGLDMTTSAPLDKAFAFITKKIDLLSSLLSEDEGHHHHHH	soluble
